Assay results as given in patent publication US9012420B2, “Aptamer for chymase, and use thereof” (Ribomic Inc., priority 2009, dated 2015).
Oligonucleotides are written 5' to 3', each unit as a sugar letter and its base; * is a phosphorothioate linkage, no mark a phosphodiester; rarer units and linkages stand in square brackets, end groups in braces. Plain capitals give the bases only. r = 2'-OH (RNA); f = 2'-fluoro

What was measured:
chymase (recombinant) [1] = target: T1, chymase (recombinant) (UniProt P23946 P23946:22-247); test: inhibition; SPR ++ (Table 2); details: tags: SIGMA, expressed in yeast
T1 sequence: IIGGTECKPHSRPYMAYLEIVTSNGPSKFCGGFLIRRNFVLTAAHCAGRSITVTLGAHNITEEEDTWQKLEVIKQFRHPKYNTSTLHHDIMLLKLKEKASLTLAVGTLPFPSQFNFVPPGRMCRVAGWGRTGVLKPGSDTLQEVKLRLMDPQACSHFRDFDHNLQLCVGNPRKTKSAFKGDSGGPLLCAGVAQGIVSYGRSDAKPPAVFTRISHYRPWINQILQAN
Procedure: (§1) Here, Suc is a protecting succinyl group, and MCA is a 4-methylcoumaryl-7-amide group; upon cleavage of the C-terminal side of phenylalanine, AMC (7-amino-4-methyl-coumarine) is released. By detecting the fluorescence of this AMC, the enzyme activity of chymase can be determined. The assay was performed using a 96-well plate (F16 Black Maxisorp Fluoronunc, manufactured by Nunc), with a reaction mixture volume of 100 μL, in solution C as a buffer solution. First, each nucleic acid was serially diluted to 0.0027-2 μM concentrations in solution C to obtain 50 μL solutions. After 10 μL of the 1 mM substrate prepared in solution C was added thereto, the plate was set to the microplate reader SpectraMax190 (manufactured by Molecular Devices Corporation), and incubated at 37° C. for 5 minutes. Separately, 0.05 μg (or 0.005 μg) of chymase (recombinant, manufactured by SIGMA) was diluted in solution C to obtain a 40 μL chymase solution, and incubated at 37° C. for 5 minutes. The chymase solution was added to the mixture of the nucleic acid and substrate to initiate an enzyme reaction. The final chymase concentration in the reaction mixture was 16.7 nM (or 1.67 nM), the final substrate concentration being 100 μM. The plate containing the reaction mixture was set to the microplate reader SpectraMax190 (manufactured by Molecular Devices Corporation), and examined for time-dependent changes in the fluorescence intensity at 37° C. for 5 minutes (or 30 minutes) (excitation wavelength 380 nm, detection wavelength 460 nm). A linear approximation of the increase in the fluorescence of the AMC released from the substrate by chymase activity was generated, and its slope was taken as the initial velocity […]. For control, samples were treated and analyzed in the same manner in two cases: use of a 30N or 40N (a nucleotide of 30 or 40 consecutive bases represented by N; N is A, G, C or T) nucleic acid pool (negative control), and use of chymostatin, a known chymotrypsin-like serine protease inhibitor (positive control). Taking the initial reaction velocity without the nucleic acid and inhibitor (V_0) as a 100% enzyme activity, the inhibitory rate of each test substance was calculated using the following equation: […]

[2] = target: T2, chymase (recombinant, manufactured by SIGMA) (Homo sapiens, UniProt P23946); test: Chymase inhibitory activity using synthetic substrate Suc-Ala-Ala-Pro-Phe-MCA; format: biochemical; details: Table 3; substrate 100 μM, solution C, 37° C.; mean value for 2 to 3 measurements
T2 construct: purchased SIGMA; host or cells: yeast
T2 sequence (P23946 22-247): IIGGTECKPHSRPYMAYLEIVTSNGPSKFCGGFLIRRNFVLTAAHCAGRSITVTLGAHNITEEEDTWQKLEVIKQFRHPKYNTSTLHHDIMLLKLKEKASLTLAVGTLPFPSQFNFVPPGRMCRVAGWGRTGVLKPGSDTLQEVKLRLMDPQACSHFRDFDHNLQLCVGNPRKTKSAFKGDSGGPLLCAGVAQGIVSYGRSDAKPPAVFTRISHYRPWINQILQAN
Procedure, shortened: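 Human recombinant chymase (16.7 nM or 1.67 nM final) preincubated 5 min at 37° C., then added to nucleic acid (0.0027–2 μM serial dilutions) and 100 μM substrate in solution C. AMC fluorescence (ex 380/em 460 nm) followed 5 or 30 min at 37° C.; slope gives initial velocity, inhibition versus no-inhibitor control yields IC50.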

chymase [3] = target: T3, chymase (Homo sapiens, UniProt P23946); test: Surface plasmon resonance (Biacore T100), aptamer immobilized on SA chip, chymase injected as analyte; format: binding; set-up: key: ++: a sequence that binds to chymase significantly more strongly than the negative control 30N; details: Table 2; same manner as Example 1, running buffer solution C; compared with 30N
T3 sequence (P23946 22-247): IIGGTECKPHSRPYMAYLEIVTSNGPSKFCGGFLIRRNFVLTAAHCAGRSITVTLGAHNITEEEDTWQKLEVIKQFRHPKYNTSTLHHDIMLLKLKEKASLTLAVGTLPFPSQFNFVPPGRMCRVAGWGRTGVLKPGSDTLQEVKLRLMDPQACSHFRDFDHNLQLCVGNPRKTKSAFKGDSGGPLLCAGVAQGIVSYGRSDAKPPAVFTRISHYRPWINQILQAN
Procedure: (§2) Binding strength is measured using Biacore T100 (manufactured by GE Healthcare). In a method of measurement, the aptamer is first immobilized onto a sensor chip, the amount immobilized being about 1000 RU. 20 μL of a chymase solution for analyte, prepared at 0.2 μM, is injected, and the binding of chymase to the aptamer is detected. An RNA comprising a random nucleotide sequence of 30 or 40 nucleotides is used as a negative control.
(§3) The binding activities against chymase of the nucleic acids shown by SEQ ID NO: 4-20 and 22-34 were determined by the surface plasmon resonance method using Biacore T100 (manufactured by GE Healthcare). The sensor chip used was the SA chip, which had streptavidin immobilized thereon. Bound thereto was about 1500 RU of a 16-nucleotide Poly dT with biotin bound to the 5′ end thereof. […] 20 μL of chymase for analyte, prepared at 0.2 μM, was injected. Solution A was used as a running buffer.
(§4) The binding activities against chymase of the nucleic acids shown by SEQ ID NO: 38-48 were evaluated by the surface plasmon resonance method. In the evaluations for SEQ ID NO: 38-48, measurements were taken in the same manner as Example 1. Solution C was used as a running buffer.

chymase [4] = target: T3, chymase; test: as above; format: binding; details: Table 1; about 1000 RU nucleic acid immobilized, chymase 0.2 μM analyte, running buffer solution A; compared with 40N
Procedure: as §2, §3, §4

chymase (recombinant) [5] = target: T1, chymase (recombinant); test: inhibition; SPR ++; details: tags: SIGMA, expressed in yeast
Procedure: as §1
The chymase inhibitory activity was measured in the same manner as in Example 3.

B1: SEQ 46 (ssRNA)
RNA: GGGAGCAGGAGAGAGGUCAGAUGGGACAGAUAGAGUUAAAGUCCGUUACGUGGCCUAUGCGUGCUAGUGUGA
modifications: 2'-F pyrimidines
**Q.** For B1, which IC50 (chymase (recombinant) [1]) is on record?
**A.** 38 nM

B2: SEQ 40 (ssRNA)
RNA: GGGAGCAGGAGAGAGGUCAGAUGAACGGAUAGAGCUAAGAGUUCGUCAGAGGGGCCUAUGCGUGCUAGUGUGA
modifications: 2'-F pyrimidines
**Q.** How did the IC50 (chymase (recombinant) [1]) turn out when B2 was run?
**A.** 140 nM

B3: 40 (nucleic acid)
chain: GGGAGCAGGAGAGAGGUCAGAUGAACGGAUAGAGCUAAGAGUUCGUCAGAGGGGCCUAUGCGUGCUAGUGUGA
modifications: 2'-fluoro at CU, RNA at AG, backbone not given here
**Q.** For B3, which IC50 [2] is on record?
**A.** 140 ± 85 nM

**Q.** And the “Binding activity as determined using Biacore” value (“Binding activity as determined” below) (chymase [3])?
**A.** ++

B4: GGGACGGUAGGAAUUCCGCAACCAUCCCGUAACUAUGGUUAGAUAGAGUUAAAAACCAUAGAAGAGCGGCCGC (nucleic acid)
chain: GGGACGGUAGGAAUUCCGCAACCAUCCCGUAACUAUGGUUAGAUAGAGUUAAAAACCAUAGAAGAGCGGCCGC
modifications: chemistry not given here
**Q.** How did the “Binding activity as determined” value (chymase [4]) turn out when B4 was run?
**A.** higher binding activity than 40N

B5: GGGACGGUAGGAAUUCGUCCAUUCUACAGAUAGAGAUAAAGUAGAAUUUAACAAAACAUAGAAGAGCGGCCGC (nucleic acid)
chain: rGrGrGrAfCrGrGfUrArGrGrArAfUfUfCrGfUfCfCrAfUfUfCfUrAfCrArGrAfUrArGrArGrAfUrArArArGfUrArGrArAfUfUfUrArAfCrArArArAfCrAfUrArGrArArGrArGfCrGrGfCfCrGfC
**Q.** For B5, which “Binding activity as determined” value (chymase [4]) is on record?
**A.** higher binding activity than 40N

B6: GGGACGGUAGGAAUUCGUCCCUCAUGUCUAUUUUGCAGAUAGACUUAAAGCAAACAUAGAAGAGCGGCCGC (nucleic acid)
chain: rGrGrGrAfCrGrGfUrArGrGrArAfUfUfCrGfUfCfCfCfUfCrAfUrGfUfCfUrAfUfUfUfUrGfCrArGrAfUrArGrAfCfUfUrArArArGfCrArArAfCrAfUrArGrArArGrArGfCrGrGfCfCrGfC
**Q.** For B6, which “Binding activity as determined” value (chymase [4]) is on record?
**A.** equivalent binding activity compared with 40N

B7: GGGACGGUAGGAAUUCAGCUGACUCCAAUGCACACGUAGAUAGAGUUAAAACGUUGCAUAGAAGAGCGGCCGC (nucleic acid)
chain: rGrGrGrAfCrGrGfUrArGrGrArAfUfUfCrArGfCfUrGrAfCfUfCfCrArAfUrGfCrAfCrAfCrGfUrArGrAfUrArGrArGfUfUrArArArAfCrGfUfUrGfCrAfUrArGrArArGrArGfCrGrGfCfCrGfC
modifications: aptamer
**Q.** For B7, which “Binding activity as determined” value (chymase [4]) is on record?
**A.** higher binding activity than 40N

B8: SEQ 44 (ssRNA)
RNA: GGGAGCAGGAGAGAGGUCAGAUGUUAGACCAAAGCAUAGGAGAUAGAGUUAAACCUAUGCGUGCUAGUGUGA
modifications: 2'-F pyrimidines
**Q.** With B8 as the molecule, how does the IC50 (chymase (recombinant) [1]) read?
**A.** 49 nM

B9: 56(38) (ssRNA)
RNA: GGGUUAGAUAGAGUUAAAAACCC
modifications: idT-G(M)G(M)G(M)U(F)U(F)sAsGAU(F)A(M)GAG(M)U(F)U(F)A(M)A(M)A(M)A(M)A(M)C(F)C(F)C(F)-idT (M=2'-OMe, F=2'-F, s=PS)
**Q.** How did the IC50 (chymase (recombinant) [5]) turn out when B9 was run?
**A.** 19 nM

B10: GGGACGGUAGGAAUUCGUCCCUCUUGUCUAUUUUGCAGAUAGACUUAAAGCAAACAUAGAAGAGCGGCCGC (nucleic acid)
chain: rGrGrGrAfCrGrGfUrArGrGrArAfUfUfCrGfUfCfCfCfUfCfUfUrGfUfCfUrAfUfUfUfUrGfCrArGrAfUrArGrAfCfUfUrArArArGfCrArArAfCrAfUrArGrArArGrArGfCrGrGfCfCrGfC
**Q.** How did the “Binding activity as determined” value (chymase [4]) turn out when B10 was run?
**A.** higher binding activity than 40N

B11: SEQ 43 (ssRNA)
RNA: GGGAGCAGGAGAGAGGUCAGAUGAUGCCAAGAUAGAUUUAAAUGGCGUUUGGGCCUAUGCGUGCUAGUGUGA
modifications: 2'-F pyrimidines
**Q.** How did the IC50 (chymase (recombinant) [1]) turn out when B11 was run?
**A.** 81 nM

B12: SEQ 72 (mixed)
mixed: GGGTTAGAUAGAGTUAAAAACCC
modifications: idT-G(M)G(M)G(M)ttAG(M)A(M)U(F)A(M)GAG(M)tU(F)A(M)A(M)A(M)A(M)A(M)ccc-idT (lower case DNA)
**Q.** Which IC50 (chymase (recombinant) [5]) does the source give for B12 here?
**A.** 20 nM

B13: SEQ 42 (ssRNA)
RNA: GGGAGCAGGAGAGAGGUCAGAUGCGUGAUCGUGCAAGGCGGAUAGAGUUAAGGCCUAUGCGUGCUAGUGUGA
modifications: 2'-F pyrimidines
**Q.** With B13 as the molecule, how does the IC50 (chymase (recombinant) [1]) read?
**A.** 124 nM

B14: GGGACGGUAGGAAUUCUCGUUCCUGACAGCAUUUGAGAUAGAUUUAAACAAACGCACAUAGAAGAGCGGCCGC (nucleic acid)
chain: GGGACGGUAGGAAUUCUCGUUCCUGACAGCAUUUGAGAUAGAUUUAAACAAACGCACAUAGAAGAGCGGCCGC
modifications: chemistry not given here
**Q.** B14 was tested. Which “Binding activity as determined” value (chymase [4]) did it give?
**A.** higher binding activity than 40N
